The target in assay [1] is LZ-mDio3^cat: leucine zipper of A. thaliana Hy5 (residues 112-150) fused N-terminally to mouse Dio3 78-304 Sec170Cys (A. thaliana | Mus musculus). The assay is described as follows: SEC; size exclusion chromatography of the purified recombinant protein (final purification step); 20 mM Tris/HCl pH 7.5/7.8, 200 mM NaCl, 1 mM TCEP; compared with molecular weight standards.
The target is the same in assay [2]. The assay is described as follows: native gel or EMSA; Blue Native PAGE, 5% stacking and 12.5% resolving gel, 4 °C; samples from the monomer and the dimer SEC peaks; catalase, BSA and chicken egg albumin as size markers. (In general: A gel shift assay detects complexes by their altered migration in electrophoresis.)
The target of assay [3] is mouse iodothyronine deiodinase 2 catalytic domain, residues 71-262 (Sec130Cys) (Mus musculus) (UniProt Q9Z1Y9). Kind of assay: SEC; size exclusion chromatography of the purified recombinant protein (final purification step); 20 mM Tris/HCl pH 7.5/7.8, 200 mM NaCl, 1 mM TCEP; compared with molecular weight standards. A general note: SEC sorts molecules by how far they enter the pores of the column.

Assay [4] has the same target. Kind of assay: SEC-MALS; SEC with multi angle light scattering of the two species of Dio2-71-262 (Supplementary Figure S3A).
For assay [5] the target is unchanged. The assay is described as follows: native gel or EMSA; Blue Native PAGE, 5% stacking and 12.5% resolving gel, 4 °C; samples from the monomer and the dimer SEC peaks; catalase, BSA and chicken egg albumin as size markers.
Assay [6] deals with mouse iodothyronine deiodinase 2, residues 49-262 (Mus musculus) (UniProt Q9Z1Y9). Kind of assay: not stated; size analysis of the recombinantly produced construct (Supplementary Figure S3C).

“LZ-mDio3^cat: leucine zipper of A. thaliana Hy5 (residues 112-150) fused N-terminally to mouse Dio3 78-304 Sec170Cys (from UniProt O24646 112-150; Q91ZI8 78-304)”: the stoichiometry N in assay [1] and in assay [2] was 2 in each case.
As to “mouse iodothyronine deiodinase 2 catalytic domain, residues 71-262 (Sec130Cys) (from UniProt Q9Z1Y9 71-262) (domain or fragment)”, the stoichiometry N in assay [3], in assay [4] and in assay [5] was 2 each time.
With “mouse iodothyronine deiodinase 2, residues 49-262 (from UniProt Q9Z1Y9 49-262) (domain or fragment)”, in assay [6], the stoichiometry N (usually a count of units in the complex or per binding partner) worked out at 2.

The record behind these values is publication PMC11592359.
